Data as given in US20230256092A1 (SHIONOGI, published 2023).
Read-outs that look alike come from different tables or passages of the source.

How the values were obtained:
Assay in all cases: cell-based or functional assay
[1] = target: T1, human CCR8 (human, UniProt P51685 1-355)
[2] = target: T1, human CCR8; remark: listed apart in the source
[3] = target: T1, human CCR8; remark: listed apart in the source

Binder | IC50 (nM), Ca2+ influx by 200 nM hCCL1 [1] [nM] | IC50 (nM), Ca2+ influx by 200 nM hCCL1 [2] [nM] | other results
h10A11 (IGKV3-20/IGHV3-15 T94R) (antibody, V domains shown) VH: EVQLVESGGALVKPGGSLRLSCAASGFTFSTYALYWVRQAPGKGLEWVGRIRSKSNNYATYYADSVKDRFTISRDDSKNTLYLQMNSLKTEDTAVYYCTRARFYYSDYGYAMDYWGQGTLVTVSS VL: EIVLTQSPGTLSLSPGERATLSCRSSKSLLHSNGNTYLYWYQQKPGQAPRLLIYRMSNLASGIPDRFSGSGSGTDFTLTISRLEPEDFAVYYCMQHLEYPLTFGQGTKVEIKR | 0.16 | – | –
h10A11 (IGKV2-40/IGHV3-15 T94R) (antibody, V domains shown) VH: EVQLVESGGALVKPGGSLRLSCAASGFTFSTYALYWVRQAPGKGLEWVGRIRSKSNNYATYYADSVKDRFTISRDDSKNTLYLQMNSLKTEDTAVYYCTRARFYYSDYGYAMDYWGQGTLVTVSS VL: DIVMTQTPLSLPVTPGEPASISCRSSKSLLHSNGNTYLYWYLQKPGQSPQLLIYRMSNLASGVPDRFSGSGSGTDFTLKISRVEAEDVGVYYCMQHLEYPLTFGQGTKLEIKR | 0.3 | – | –
humanized 10A11 antibody (light chain variable region: IGKV4-1 N53Q+G29R/heavy chain variable region: IGHV3-15 T94R) (antibody, V domains shown) VH: EVQLVESGGALVKPGGSLRLSCAASGFTFSTYALYWVRQAPGKGLEWVGRIRSKSNNYATYYADSVKDRFTISRDDSKNTLYLQMNSLKTEDTAVYYCTRARFYYSDYGYAMDYWGQGTLVTVSS VL: DIVMTQSPDSLAVSLGERATINCRSSKSLLHSNRNTYLYWYQQKPGQPPKLLIYRMSQLASGVPDRFSGSGSGTDFTLTISSLQAEDVAVYYCMQHLEYPLTFGQGTKLEIKR | – | 0.12 | –
humanized 10A11 mutant (IGKV3-20 N53Q, G29R/IGHV3-15 T94R) (antibody, V domains shown) VH: EVQLVESGGALVKPGGSLRLSCAASGFTFSTYALYWVRQAPGKGLEWVGRIRSKSNNYATYYADSVKDRFTISRDDSKNTLYLQMNSLKTEDTAVYYCTRARFYYSDYGYAMDYWGQGTLVTVSS VL: EIVLTQSPGTLSLSPGERATLSCRSSKSLLHSNRNTYLYWYQQKPGQAPRLLIYRMSQLASGIPDRFSGSGSGTDFTLTISRLEPEDFAVYYCMQHLEYPLTFGQGTKVEIKR | – | 0.19 | –
h10A11 (IGKV2-40/IGHV3-73) (antibody, V domains shown) VH: EVQLVESGGGLVQPGGSLKLSCAASGFAFNTYALYWVRQASGKGLEWVGRIRSKSNNYATYYADSVKDRFTISRDDSKNTAYLQMNSLKTEDTAVYYCTRARFYYSDYGYAMDYWGQGTLVTVSS VL: DIVMTQTPLSLPVTPGEPASISCRSSKSLLHSNGNTYLYWYLQKPGQSPQLLIYRMSNLASGVPDRFSGSGSGTDFTLKISRVEAEDVGVYYCMQHLEYPLTFGQGTKLEIKR | 0.21 | – | –
h10A11 (IGKV1-39/IGHV3-73) (antibody, V domains shown) VH: EVQLVESGGGLVQPGGSLKLSCAASGFAFNTYALYWVRQASGKGLEWVGRIRSKSNNYATYYADSVKDRFTISRDDSKNTAYLQMNSLKTEDTAVYYCTRARFYYSDYGYAMDYWGQGTLVTVSS VL: DIQMTQSPSSLSASVGDRVTITCRSSKSLLHSNGNTYLYWYQQKPGKAPKLLIYRMSNLASGVPSRFSGSGSGTDFTLTISSLQPEDFATYYCMQHLEYPLTFGQGTKLEIKR | 0.16 | – | –
h10A11 (IGKV2-28/IGHV3-73) (antibody, V domains shown) VH: EVQLVESGGGLVQPGGSLKLSCAASGFAFNTYALYWVRQASGKGLEWVGRIRSKSNNYATYYADSVKDRFTISRDDSKNTAYLQMNSLKTEDTAVYYCTRARFYYSDYGYAMDYWGQGTLVTVSS VL: DIVMTQSPLSLPVTPGEPASISCRSSKSLLHSNGNTYLYWYLQKPGQSPQLLIYRMSNLASGVPDRFSGSGSGTDFTLKISRVEAEDVGVYYCMQHLEYPLTFGQGTKVEIKR | 0.2 | – | –
h10A11 (IGKV1-39/IGHV3-15 T94R) (antibody, V domains shown) VH: EVQLVESGGALVKPGGSLRLSCAASGFTFSTYALYWVRQAPGKGLEWVGRIRSKSNNYATYYADSVKDRFTISRDDSKNTLYLQMNSLKTEDTAVYYCTRARFYYSDYGYAMDYWGQGTLVTVSS VL: DIQMTQSPSSLSASVGDRVTITCRSSKSLLHSNGNTYLYWYQQKPGKAPKLLIYRMSNLASGVPSRFSGSGSGTDFTLTISSLQPEDFATYYCMQHLEYPLTFGQGTKLEIKR | 0.2 | – | –
humanized 10A11 mutant (IGKV3-20 N53Q, G29L/IGHV3-15 T94R) (antibody, V domains shown) VH: EVQLVESGGALVKPGGSLRLSCAASGFTFSTYALYWVRQAPGKGLEWVGRIRSKSNNYATYYADSVKDRFTISRDDSKNTLYLQMNSLKTEDTAVYYCTRARFYYSDYGYAMDYWGQGTLVTVSS VL: EIVLTQSPGTLSLSPGERATLSCRSSKSLLHSNLNTYLYWYQQKPGQAPRLLIYRMSQLASGIPDRFSGSGSGTDFTLTISRLEPEDFAVYYCMQHLEYPLTFGQGTKVEIKR | – | 0.21 | –
humanized 10A11 mutant (IGKV3-20 N53Q, N28K/IGHV3-15 T94R) (antibody, V domains shown) VH: EVQLVESGGALVKPGGSLRLSCAASGFTFSTYALYWVRQAPGKGLEWVGRIRSKSNNYATYYADSVKDRFTISRDDSKNTLYLQMNSLKTEDTAVYYCTRARFYYSDYGYAMDYWGQGTLVTVSS VL: EIVLTQSPGTLSLSPGERATLSCRSSKSLLHSKGNTYLYWYQQKPGQAPRLLIYRMSQLASGIPDRFSGSGSGTDFTLTISRLEPEDFAVYYCMQHLEYPLTFGQGTKVEIKR | – | 0.29 | –
h10A11 (IGKV1-16/IGHV3-15 T94R) (antibody, V domains shown) VH: EVQLVESGGALVKPGGSLRLSCAASGFTFSTYALYWVRQAPGKGLEWVGRIRSKSNNYATYYADSVKDRFTISRDDSKNTLYLQMNSLKTEDTAVYYCTRARFYYSDYGYAMDYWGQGTLVTVSS VL: DIQMTQSPSSLSASVGDRVTITCRSSKSLLHSNGNTYLYWFQQKPGKAPKSLIYRMSNLASGVPSRFSGSGSGTDFTLTISSLQPEDFATYYCMQHLEYPLTFGQGTKLEIKR | 0.7 | – | –
2-7B (antibody, V domains shown) VH: EVQLVESDGGLVQPGRSLKLSCAASGFTFSDYYMAWVRQAPTKGLEWVATITYDVYSTYYRDSVKGRFTISRDNAKSTLYLQMDSLRSEDTATYYCARHGGDGYNSGNWFAYWGQGTLVTVSS VL: DIVLTQSPALAVSLGQRATISCRASQSVSISRYNIMHWYQQKPGQQPKLLIYRASNLASGIPARFSGSGSGTDFTLTINPVQADDIATYYCQQSRESPPTFGGGTKLELKR | – | – | IC50 (nM), Ca2+ influx by 200 nM hCCL1 [3]: 0.23 nM
